# B1: myc-tagged SynDIG4 (wild type) [rat] / HA-tagged μ2 AP subunit [not stated] (parent)
# chain 1: MSSEKSGLPDSVPHTSPPPYNAPQPPAEPPIPPPQTAPSSHHHHHHHYHQSGTATLPRLGAGGLASAAAGAQRGPSSSATLPRPPHHAPPGPAAGAPPPGCATLPRMPPDPYLQETRFEGPLPPPPPAAAAPPPPAPAPTAQAPGFVVPTHAGAVGTLPLGGYVAPGYPLQLQPCTAYVPVYPVGTPYASGTPGGPGVTSTLPPPPQGPGLALLEPRRPPHDYMPIAVLTTICCFWPTGIIAIFKAVQVRTALARGDLVSAEIASREARNFSFISLAVGIAAMVLCTILTVVIIIAAQHHENYWDP
# chain 2: MIGGLFIYNHKGEVLISRVYRDDIGRNAVDAFRVNVIHARQQVRSPVTNIARTSFFHVKRSNIWLAAVTKQNVNAAMVFEFLYKMCDVMAAYFGKISEENIKNNFVLIYELLDEILDFGYPQNSETGALKTFITQQGIKSQHQTKEEQSQITSQVTGQIGWRREGIKYRRNELFLDVLESVNLLMSPQGQVLSAHVSGRVVMKSYLSGMPECKFGMNDKIVIEKQGKGTADETSKSGKQSIAIDDCTFHQCVRLSKFDSERSISFIPPDGEFELMRYRTTKDIILPFRVIPLVREVGRTKLEVKVVIKSNFKPSLLAQKIEVRIPTPLNTSGVQVICMKGKAKYKASENAIVWKIKRMAGMKESQISAEIELLPTNDKKKWARPPISMNFEVPFAPSGLKVRYLKVFEPKLNYSDHDVIKWVRYIGRSGIYETRC
# Variants of: B1
# Assay: co-immunoprecipitation (IP: HA, blot: myc), quantified
# Conditions: with HA-tagged μ2 AP subunit; HEK293T cells; first bar chart of panel D (SD4 vs AVPA); parent: 100; read off a plot
row,Variant,percent of parent
1,chain 1 Y178A V181A,45 %SD4

# Same assay, conditions: with HA-tagged μ2 AP subunit; HEK293T cells; third bar chart of panel D (SD4 vs AVPA vs ∆170-89); marked ns; parent: 100; read off a plot
row,Variant,percent of parent
1,chain 1 Y178A V181A,55 %SD4

# — PMC11798926
